From paper PMC12090190 (ACS Chemical Biology, 2025)

B1: WT hOTC (human ornithine transcarbamylase) (Homo sapiens) (protein)
chain: NKVQLKGRDLLTLKNFTGEEIKYMLWLSADLKFRIKQKGEYLPLLQGKSLGMIFEKRSTRTRLSTETGFALLGGHPCFLTTQDIHLGVNESLTDTARVLSSMADAVLARVYKQSDLDTLAKEASIPIINGLSDLYHPIQILADYLTLQEHYSSLKGLTLSWIGDGNNILHSIMMSAAKFGMHLQAATPKGYEPDASVTKLAEQYAKENGTKLLLTNDPLEAAHGGNVLITDTWISMGQEEEKKKRLQAFQGYQVTMKTAKVAASDWTFLHCLPRKPEEVDDEVFYSPRSLVFPEAENRKWTIMAVMVSLLTDYSPQLQKPKF

Experiments:
[1] = target: T1, WT hOTC (human ornithine transcarbamylase) (Homo sapiens, UniProt P00480); test: differential scanning fluorimetry; type: binding; details: 4 μM enzyme; 10 mM sodium phosphate
T1 sequence (P00480 33-354): B1 chain

[2] = substrate: NC(=O)OP(=O)(O)O; test: discontinuous colorimetric citrulline assay, steady-state kinetics; type: biochemical, Homo sapiens; details: co-substrate ornithine

Molecule	dTm [1]	Km [2]	kcat [2]	kcat/Km [2]
O=P(O)(O)O [phosphate]	The addition of phosphate generally increased the melting temperature of these variants	–	–	–
B1	–	240 ± 70 µM	56 ± 9.8 s⁻¹	240000 ± 29000 M⁻¹ s⁻¹
